Data reported in publication PMC4078746 (Current biology : CB, 2010).

Target: the molecule itself
Test: SEC

B1: Robo2^R1I1+2 Ig1-5 fragment (Ig1+2 of Robo, Ig3-5 of Robo2) (domain or fragment)
chain: not shown
B1 was tested, and the “stoichiometry N” value was 2.
